For test [1], the target named is T1, S287-K347 PHD1 (KDM5A, GST-PHD1) (Homo sapiens, UniProt P29375).
T1 construct: Expression of GST-PHD1 (Ser287-Lys347); GST (N); made in house; host or cells: E. coli BL21(DE3)
T1 sequence (P29375 287-347): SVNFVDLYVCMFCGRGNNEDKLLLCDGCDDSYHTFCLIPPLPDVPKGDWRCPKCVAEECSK
Briefly: Fluorescence polarization binding to PHD1 S287-K347. As for the experimental part:
(§1) All PHD1 constructs used (Val291-[…], S287-K347, and S287-K347 D292A) (Supplementary Figure 1) were cloned into a pET41a vector and expressed in BL21(DE3) E. coli cells. Expression and purification of all mutants followed the same protocol. Specifically, cells were induced with 0.4 mM IPTG and grown at 18 °C overnight before the pellet was collected. The cells were resuspended in lysis buffer (140 mM NaCl, 2.7 mM KCl, 10 mM Na2HPO4, 1.8 mM KH2PO4, 0.5 mM TCEP, 50 µM ZnCl2, 1 mM phenylmethylsulfonyl fluoride (PMSF), pH 7.3), lysed by sonication and centrifuged. The supernatant was purified using Glutathione Sepharose 4B resin, washed with high salt buffer (50 mM HEPES, 700 mM KCl, 10% glycerol, 0.5 mM TCEP, […], 1 mM PMSF, pH 8) and low salt buffer (50 mM HEPES, 150 mM KCl, 10% glycerol, 0.5 mM TCEP, […], 1 mM PMSF, pH 8) and recovered by elution using low salt buffer with 30 mM glutathione. The sample was then concentrated and further purified by size-exclusion chromatography using a Hiload 26/60 Superdex 75 gel filtration column. Samples were eluted into 40 mM HEPES, 50 mM KCl, 0.5 mM TCEP, and […] and flash-frozen.
Data from direct FP measurements were fitted to equation 1: FPobs=FPmaxPHD1+FPminKd/Kd+[PHD1]
Data from competition-based FP assays were fitted to equation 2: FPobs=KiFPmaxPHD1+FPminKd+FPminKd[I]/KiKd+[PHD1]+Kd[I] where FPobs is the observed FP, FPmax is the maximum FP value, FPmin is the minimum FP value, [PHD1] is concentration of PHD1, Kd is the dissociation constant, Ki is the inhibition constant referring to the competing peptide and [I] is the competing peptide concentration.
Background: In fluorescence polarisation assays a small probe gives low polarisation when free and higher when bound to something large.

Another test concerns the target T2, KDM5A1-797 (Homo sapiens, UniProt P29375).
T2 construct: KDM5A1-797 was cloned into a pFASTBAC HTA vector; His (N, cleaved yes); made in house; host or cells: Sf21 insect cells (baculovirus)
T2 sequence (P29375 1-797): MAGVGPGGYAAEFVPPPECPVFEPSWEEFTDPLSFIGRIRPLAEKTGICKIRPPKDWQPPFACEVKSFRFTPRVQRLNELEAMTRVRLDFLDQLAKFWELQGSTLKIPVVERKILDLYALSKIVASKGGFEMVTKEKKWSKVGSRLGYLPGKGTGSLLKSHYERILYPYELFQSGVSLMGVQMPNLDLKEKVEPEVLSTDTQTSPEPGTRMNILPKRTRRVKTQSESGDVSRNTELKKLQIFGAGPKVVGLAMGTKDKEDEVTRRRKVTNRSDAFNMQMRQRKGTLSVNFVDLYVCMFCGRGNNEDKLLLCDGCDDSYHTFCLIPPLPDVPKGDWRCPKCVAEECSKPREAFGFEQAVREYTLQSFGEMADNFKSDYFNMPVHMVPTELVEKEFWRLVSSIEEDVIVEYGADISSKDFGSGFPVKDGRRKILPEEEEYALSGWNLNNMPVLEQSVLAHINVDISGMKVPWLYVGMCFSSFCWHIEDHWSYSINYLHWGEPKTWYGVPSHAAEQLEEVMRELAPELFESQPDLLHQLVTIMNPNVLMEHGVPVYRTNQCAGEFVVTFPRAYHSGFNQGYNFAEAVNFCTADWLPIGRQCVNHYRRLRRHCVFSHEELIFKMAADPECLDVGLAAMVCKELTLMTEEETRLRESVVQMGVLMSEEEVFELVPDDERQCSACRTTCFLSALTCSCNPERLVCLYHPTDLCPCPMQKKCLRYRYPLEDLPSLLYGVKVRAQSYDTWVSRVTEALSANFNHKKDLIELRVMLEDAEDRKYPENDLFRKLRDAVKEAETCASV
Description: KDM5A demethylation, FDH-coupled formaldehyde release assay. The format is biochemical. The following applies: for kcat / Km: 1 μM KDM5A, pH 7.5, room temperature, n ≥ 3, s.e.m.; for Km: read-out: Km. As for the experimental part: WT KDM5A1-797 was expressed in Sf21 cells following Invitrogen Bac-to-Bac baculovirus expression system protocol. KDM5A1-797 was cloned into a pFASTBAC HTA vector. Purified bacmid was transfected in Sf21 cells. Approximately […] cells per well of a six-well dish were allowed to attach in 2 ml of SF-900 II SFM media containing 50 U ml^−1 penicillin and 50 μg ml^−1 streptomycin. While cells attached, 8 μl of Cellfectin II reagent (Invitrogen) in 100 μl of unsupplemented Grace’s medium was mixed with ~2–5 μg of bacmid in 100 μl of unsupplemented Grace’s medium and incubated for 15–30 min at 25 °C. Once cells were attached, media was removed and cells were washed with 2 ml of Grace’s unsupplemented media. The bacmid DNA:Cellfectin mixture was then diluted to 1 ml with Grace’s unsupplemented media and added to the well. Cells with bacmid:Cellfectin II mixture were incubated for 5 h at 27 °C. After 5 h of incubation, bacmid:Cellfectin mixture was removed and replaced with 2 ml of SF-900 II SFM 50 U ml^−1 penicillin and 50 μg ml^−1 streptomycin. Transfected cells were incubated 3–5 days or until signs of viral infection were observed. After transfection, the supernatant was spun down to remove the dead cells. The supernatant was then sterile filtered to obtain the P1 viral stock. To make P2, 20 ml of […] at ~2 × 10^6 cells per ml of sf21 was infected with 2 ml of P1 virus and incubated for 48–60 h. After 56 h, the cells were spun down and the supernatant was collected and sterile filtered to obtain P2 viral stock. Similarly, P3 viral stock from P2 viral stock was obtained. Generally, 1 l of Sf21 at 2 × 10^6 cells per ml was infected with ~40 ml of P3 virus for ~48–56 h. Cells were then collected and resuspended in the lysis buffer (25 mM HEPES pH 7.9, 350 mM NaCl, 5 mM KCl, 1.5 mM MgCl2, 10 mM imidazole, aprotinin 2 μg ml^−1, leupeptin 3 μg ml^−1, pepstatin 3 μg ml^−1, and 1 mM PMSF). Cells were homogenized by emulsiflex. After lysis, the supernatant was recovered by centrifuging at 35k r.p.m. for 45 min, and incubated with cobalt resin equilibrated in lysis buffer for 1 h at 4 °C. After incubation the resin was washed with wash buffer (25 mM HEPES, pH 7.9, 350 mM NaCl, 0.5 mM MgCl2, 10% glycerol, 10 mM imidazole, aprotinin 2 μg ml^−1, leupeptin 3 μg ml^−1, pepstatin 3 μg ml^−1, and 1 mM PMSF). His-KDM5A was eluted with elution buffer (25 mM HEPES pH 7.9, 100 mM NaCl, 0.5 mM MgCl2, 10% glycerol, 100 mM imidazole, aprotinin 2 μg ml^−1, leupeptin 3 μg ml^−1, pepstatin 3 μg ml^−1, and 1 mM PMSF). The His-tag was removed by overnight incubation with TEV protease at 4 °C in the dialysis buffer (25 mM HEPES, pH 7.9, 100 mM NaCl, and 2 mM DTT). After cleavage, protein was further purified by size-exclusion chromatography using a S200 column. Purified KDM5A was eluted, aliquoted and stored at −80 °C in 40 mM HEPES, pH 7.9, 50 mM KCl.
Michaelis–Menten parameters were determined using Graphpad Prism.

Another test relates to PHD1KDM5B. The following applies: cited from earlier work. The text has this: This study presents a significant amount of biochemical and biophysical work to reveal the molecular basis underlying the allosteric enhancement in a quantitative manner. […] H ...
Test [2] deals with T3, S287-K347 PHD1 D292A (KDM5A, GST-PHD1) (Homo sapiens, UniProt P29375, D292A).
T3 construct: S287-K347, and S287-K347 D292A; GST (N); made in house; host or cells: E. coli BL21(DE3)
T3 sequence (P29375 287-347 D292A): T1 sequence (P29375 287-347) with D6A
Briefly: Fluorescence polarization binding to PHD1 S287-K347 D292A. The settings on record: compared to WT PHD1S287-K347. As to the method:
as §1
Data from direct FP measurements were fitted to equation 1: FPobs=FPmaxPHD1+FPminKd/Kd+[PHD1] […]

Changes are numbered by the printed parent chain. Like-named read-outs stand apart in the source and are kept apart here.

One may read the Kd as the free concentration of one partner at which half of the binding sites on the other are occupied at equilibrium, for simple one-to-one binding. As to `C[C@H](N)C(=O)N[C@@H](C)C(=O)N[C@H](C(=O)N[C@@H](CCCCN)C(=O)N[C@@H](CCC(N)=O)C(=O)N[C@H](C(=O)N[C@@H](C)C(=O)N[C@@H](CCCNC(=N)N)C(=O)N[C@@H](CCCCN)C(=O)N[C@@H](CO)C(=O)O)[C@@H](C)O)[C@@H](C)O` [H3R2A], in test [1] (modified H3 10mer N-terminal peptides, competition-based FP, NB = no binding, n ≥ 3, s.e.m., construct not stated in legend, read-out: PHD1 binding Kd (Fig. 4a)), the Kd was 205 ± 73 µM.

Broadly, the kcat/Km is the second-order rate constant that governs catalysis at low substrate concentration. By kcat is commonly meant the number of substrate molecules converted per active site and unit of time at saturation. Broadly, the Km is the substrate concentration at which the rate is half of its maximum. Take “Ac-H3K4me2 21mer: N-terminally acetylated 21mer H3K4me2 peptide (Ala1-Ala21)”: the “reduction in Km on addition of effector peptide” value in the test with KDM5A1-797 (38 µM H3 10mer effector peptide vs none) is “fivefold”. In the test with KDM5A1-797 (+H3 10mer peptide (38 µM)), the kcat/Km was 427 ± 95 M⁻¹ s⁻¹, the kcat amounted to 0.0233 ± 0.001 s⁻¹ and the Km is 54.7 ± 9.9 µM. In addition, in the test with KDM5A1-797 (No effector peptide), the kcat/Km amounted to 98 ± 34 M⁻¹ s⁻¹, the kcat was found to be 0.0225 ± 0.00183 s⁻¹ and the Km is 229 ± 60 µM. In addition, the “binding to PHD1 domain” value in test [1] (FP, at the concentrations used in our assays (Supplementary Figure 3a: Ac-H3K4me2-FAM, PHD1S287-K347)) is reported as “does not bind to the PHD1 domain”.

Take “H3K4me0: C-terminal fluorescently labeled unmodified H3 10mer peptide, affinity by direct FP”: the “decrease in affinity for H3 peptide on mutation of the analogous Asp in KDM5B PHD1” value in the test on PHD1KDM5B (PHD1KDM5B Asp mutant vs WT, ref Klein Cell Rep 2014 and Zhang Protein Cell 2014) is reported as “approximately 6 fold”. In the test on PHD1KDM5B (PHD1KDM5B), the “discrimination of WT H3 over H3K4A peptide” value is listed as 2.5 fold. For the same compound, the “decrease in affinity, D292A vs WT PHD1S287-K347” value in test [2] (listed as H3 peptide) is listed as 7.6 fold; in test [2] (listed as unmodified H3 peptide), “approximately eightfold”. The “preference for WT H3 peptide over H3K4A peptide” value in test [1] (ratio of Kd) is reported as 2.3 fold.

The values are drawn from article PMC6327041 (Nature Communications, 2019).
